Assay results taken from patent US20060246421A1.

Target: wild-type NS3 protein of hepatitis C virus (hepatitis C virus) (UniProt Q9WMX2)
Assay: cell-based or functional assay

## D290A NS3 (ATPase-deficient mutant NS3 protein) (from UniProt Q9WMX2 1027-1657)
  fold decrease in activity of the HCV-Luc replicon (luciferase) in Huh-7 cells, 48 h: 9 fold
